The text below walks through data of PMC12678768.

Usually stoichiometry N stands for a count of units in the complex or per binding partner.

The experiment deals with HTLV-1 CA C-terminal domain, HTLV-1 CACTD (A128-L214) (Human T-cell Leukaemia Virus type 1, subtype C, isolate Aus-GM). Nature of the experiment: SEC; HTLV-1 CACTD on HiLoad 26/600 Superdex 75 pg, 20 mM HEPES (pH 7.0), 40 mM NaCl; purified as a dimer (Supplementary Fig. 3d). (In general: Size exclusion chromatography separates by hydrodynamic size, large species first.)

“HTLV-1 CA C-terminal domain, HTLV-1 CACTD (A128-L214) (domain or fragment)” had a stoichiometry N of 2.
